Laboratory results as given in paper PMC9890132 (Molecular Cancer Therapeutics, 2022).

Legend:
[1] = molecular target: cynomolgus monkey FolRα overexpressed on CHO cells (Macaca fascicularis, UniProt A0A2K5U044); assay: flow cytometry on cells
[2] = molecular target: Recombinantly-expressed FolRα extracellular domain (Acro Biosystems) (Homo sapiens, UniProt P15328); assay: SPR

B1: anti-FolRα antibody SP8166 (antibody, V domains shown)
VH: EVQLVESGGGLVQPGGSLRLSCAASGFNIRTQSIHWVRQAPGKGLEWIGDIFPIDGITDYADSVKGRFTISADTSKNTAYLQMNSLRAEDTAVYYCARGSWSWPSGMDYYLDYWGQGTLVTVSS
VL: not shown
binding result [1]: binds
Kd [2]: 2.3 nM
